Source: paper PMC2865030 (Biochemical Journal, 2008)

B1: Tah1 (TPR-containing protein associated with Hsp90) (natural protein)
chain: MSQFEKQKEQGNSLFKQGLYREAVHCYDQLITAQPQNPVGYSNKAMALIKLGEYTQAIQMCQQGLRYTSTAEHVAIRSKLQYRLELAQGAVGSVQIPVVEVDELPEGYDRS

What was measured:
Assay in all cases: ITC
[1] = biological target: B1
[2] = biological target: human Hsp90β (His-tagged) (human, UniProt P08238 1-724)
[3] = biological target: yeast Ssa1 (Hsp70, His-tagged) (yeast, UniProt P10591 1-642)
human Hsp90α = human Hsp90α (human, UniProt P07900 1-732)

Sequence of human Hsp90β (His-tagged) (P08238 whole entry): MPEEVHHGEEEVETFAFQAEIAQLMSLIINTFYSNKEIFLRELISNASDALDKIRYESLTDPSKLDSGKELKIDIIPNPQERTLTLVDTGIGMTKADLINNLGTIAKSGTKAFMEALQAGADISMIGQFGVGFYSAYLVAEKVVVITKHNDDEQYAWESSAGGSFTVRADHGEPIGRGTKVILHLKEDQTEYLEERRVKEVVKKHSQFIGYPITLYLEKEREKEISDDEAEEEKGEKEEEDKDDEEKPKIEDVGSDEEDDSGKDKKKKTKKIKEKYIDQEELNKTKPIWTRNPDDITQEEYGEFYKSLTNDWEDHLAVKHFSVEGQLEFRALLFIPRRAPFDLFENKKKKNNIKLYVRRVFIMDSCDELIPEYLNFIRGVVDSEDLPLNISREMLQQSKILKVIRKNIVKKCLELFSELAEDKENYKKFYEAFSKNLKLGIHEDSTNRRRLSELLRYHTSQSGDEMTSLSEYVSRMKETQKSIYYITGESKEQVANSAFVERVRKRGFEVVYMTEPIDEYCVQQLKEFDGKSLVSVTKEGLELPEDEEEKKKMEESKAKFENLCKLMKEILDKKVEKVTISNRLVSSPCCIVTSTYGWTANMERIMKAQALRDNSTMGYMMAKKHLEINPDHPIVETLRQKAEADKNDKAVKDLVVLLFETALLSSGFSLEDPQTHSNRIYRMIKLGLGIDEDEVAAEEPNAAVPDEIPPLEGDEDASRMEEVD
Sequence of yeast Ssa1 (Hsp70, His-tagged) (P10591 whole entry): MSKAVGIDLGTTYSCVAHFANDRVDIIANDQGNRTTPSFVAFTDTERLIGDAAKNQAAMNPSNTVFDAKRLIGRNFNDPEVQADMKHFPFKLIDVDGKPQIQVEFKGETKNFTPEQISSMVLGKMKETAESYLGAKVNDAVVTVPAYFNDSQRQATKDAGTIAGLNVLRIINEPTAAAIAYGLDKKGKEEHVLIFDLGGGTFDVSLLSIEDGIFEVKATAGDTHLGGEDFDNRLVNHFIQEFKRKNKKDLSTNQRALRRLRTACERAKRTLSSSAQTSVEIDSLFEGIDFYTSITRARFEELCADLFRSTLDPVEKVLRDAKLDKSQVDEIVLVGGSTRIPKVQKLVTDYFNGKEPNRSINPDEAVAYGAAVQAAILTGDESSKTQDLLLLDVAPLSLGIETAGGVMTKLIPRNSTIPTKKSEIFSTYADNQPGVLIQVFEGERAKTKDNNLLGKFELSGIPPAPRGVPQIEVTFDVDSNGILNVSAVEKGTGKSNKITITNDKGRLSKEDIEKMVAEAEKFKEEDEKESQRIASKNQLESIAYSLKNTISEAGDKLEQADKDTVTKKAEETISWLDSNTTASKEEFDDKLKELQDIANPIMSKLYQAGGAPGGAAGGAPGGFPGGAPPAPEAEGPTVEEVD

Binder | stoichiometry N [1] | Kd [1] [nM] | further results
MEEVD [MEEVD pentapeptide (C-terminal end of yeast Hsp90)] | 1.1 |  | 
VEEVD [VEEVD pentapeptide (C-terminal end of Ssa1)] |  | 48800 ± 5500 | 
TEMEEVD [TEMEEVD heptapeptide (C-terminal end of yeast Hsp90)] | 1.2 | 950 ± 40 | 
DDTSRMEEVD [DDTSRMEEVD decapeptide (C-terminal end of human Hsp90α)] | 1.1 | 900 ± 60 | 
EDASRMEEVD [EDASRMEEVD decapeptide (C-terminal end of human Hsp90β)] | 0.81 | 1000 ± 190 | 
PTVEEVD [PTVEEVD heptapeptide (C-terminal end of Ssa1)] | 1 | 10600 ± 1400 | 
AEGPTVEEVD [AEGPTVEEVD decapeptide (C-terminal end of Ssa1, wild-type sequence)] | 1.2 | 28900 ± 3100 | 
B1 |  |  | Kd [2]: 340 ± 70 nM; stoichiometry N [2]: 0.84; Kd [3]: 16000 ± 2500 nM; Kd (human Hsp90α): 330 ± 30 nM; stoichiometry N (human Hsp90α): 1.1
